From the Immune Epitope Database (IEDB) come the findings set out here.

pIC50, pKd: −log10 of the molar value.

The target in assay [1] is HLA-A*03:01. The assay can be described thus: IEDB peptide-MHC binding, purified MHC/competitive/fluorescence; ≥ and ≤ were set here for values at or beyond the usual limits of such assays. The following applies: source organism: Zaire ebolavirus.
A further assay has as its target HLA-A*24:02. The assay is described as above. The following applies: source organism: Zaire ebolavirus.
A further assay addresses HLA-A*11:01. The assay is described as above. To be noted: source organism: Zaire ebolavirus.
Assay [2] concerns the target HLA-B*15:01. The assay can be described thus: IEDB peptide-MHC binding, purified MHC/competitive/fluorescence; filed as Kd, often an IC50 or EC50 that approximates it; ≥ and ≤ were set here for values at or beyond the usual limits of such assays.
Assay [3] deals with HLA-A*26:01. Described as above.
The target of a further assay is HLA-B*57:01. Described as above.
The target in assay [4] is HLA-A*24:03. The description is as above.
Assay [5] addresses HLA-A*02:01. The assay is described as above.
The target in assay [6] is HLA-A*03:01. Described as above. To be noted: source organism: Giardia intestinalis ATCC 50581.
For another assay, the target named is HLA-B*46:01. The assay is described as above.
In another assay the target is HLA-B*27:03. Described as above.
The target of the next assay is HLA-B*18:01. The description is as above.
A further assay concerns the target HLA-B*39:01. The description is as above.
A further assay concerns the target HLA-B*51:01. The assay is described as above.
The target in assay [7] is HLA-A*02:12. Described as above. To be noted: source organism: Giardia intestinalis ATCC 50581.
For assay [8], the target named is HLA-A*24:03. As to the kind of experiment: IEDB peptide-MHC binding, purified MHC/direct/fluorescence; filed as Kd, often an IC50 or EC50 that approximates it; ≥ and ≤ were set here for values at or beyond the usual limits of such assays. The following applies: source organism: Zaire ebolavirus.
The target in the next assay is HLA-A*02:19. The assay is described as above. To be noted: source organism: Zaire ebolavirus.
The target of a further assay is HLA-A*02:11. The assay is described as above. The following applies: source organism: Zaire ebolavirus.
The target of assay [9] is HLA-A*03:01. The assay is described as above.
In a further assay the target is HLA-A*68:02. The description is as above. The following applies: source organism: Zaire ebolavirus.
The target in another assay is HLA-A*02:03. The assay is described as above. The following applies: source organism: Zaire ebolavirus.
In a further assay the target is HLA-A*02:16. The assay is described as above. To be noted: source organism: Zaire ebolavirus.
The target of assay [10] is HLA-A*02:12. The assay is described as above. The following applies: source organism: Zaire ebolavirus.
A further assay deals with HLA-A*29:02. Described as above. The following applies: source organism: Zaire ebolavirus.
For another assay, the target named is HLA-B*15:17. As to the kind of experiment: IEDB peptide-MHC binding, purified MHC/competitive/fluorescence; filed as Kd, often an IC50 or EC50 that approximates it; ≥ and ≤ were set here for values at or beyond the usual limits of such assays. To be noted: source organism: Zaire ebolavirus.
In a further assay the target is HLA-A*31:01. The assay is described as above. The following applies: source organism: Zaire ebolavirus.
Another assay has as its target HLA-A*69:01. The description is as above. To be noted: source organism: Zaire ebolavirus.
In assay [11] the target is HLA-A*26:01. The assay can be described thus: IEDB peptide-MHC binding, purified MHC/direct/fluorescence; filed as Kd, often an IC50 or EC50 that approximates it; ≥ and ≤ were set here for values at or beyond the usual limits of such assays. The following applies: source organism: Zaire ebolavirus.
The target of assay [12] is HLA-B*15:01. As to the kind of experiment: IEDB peptide-MHC binding, purified MHC/competitive/fluorescence; ≥ and ≤ were set here for values at or beyond the usual limits of such assays. To be noted: source organism: Zaire ebolavirus.
Another assay deals with HLA-B*07:02. The assay is described as above. The following applies: source organism: Zaire ebolavirus.
The target of another assay is HLA-B*08:01. The description is as above. The following applies: source organism: Zaire ebolavirus.
Assay [13] deals with HLA-A*02:01. Described as above. The following applies: source organism: Zaire ebolavirus.
Setting [14] is: source organism: Giardia intestinalis ATCC 50581.
Where [15] appears, read: source organism: Zaire ebolavirus.

As to VYRDHSEKK, the figures for the negative-log IC50 (pIC50) with HLA-A*03:01 [1], in the assay with HLA-A*24:02 and with HLA-A*11:01 were 4.60, 4.54 and 4.48, respectively.

Consider FYWPVMNHK, for which the results for the pIC50 with HLA-A*03:01 [1], with HLA-A*24:02 and in the assay with HLA-A*11:01 were 5.33, 5.01 and 5.34, respectively.

As for GLYLYRFHV, the negative logarithm of the Kd (pKd) was not above 4.70 in the assay with HLA-B*15:01 [2] (setting [14]); not above 4.70 with HLA-A*26:01 [3] (setting [14]); not above 4.70 with HLA-B*57:01 (setting [14]); not above 4.70 with HLA-A*24:03 [4] (setting [14]); 8.85 in the assay with HLA-A*02:01 [5] (setting [14]); not above 4.70 with HLA-A*03:01 [6]. Further, the pKd was not above 4.70 in the assay with HLA-B*46:01 (setting [14]); not above 4.70 with HLA-B*27:03 (setting [14]); not above 4.70 with HLA-B*18:01 (setting [14]); not above 4.70 in the assay with HLA-B*39:01 (setting [14]); not above 4.70 with HLA-B*51:01 (setting [14]); 8.26 with HLA-A*02:12 [7].

RVPTVFHKK: the pKd was not above 4.70 with HLA-A*24:03 [8]; not above 4.70 in the assay with HLA-A*02:19; not above 4.70 in the assay with HLA-A*02:11; 6.62 with HLA-A*03:01 [9] (source organism: Sudan ebolavirus - Uganda (2000)); not above 4.70 with HLA-A*68:02; not above 4.70 in the assay with HLA-A*02:03. For the same sequence, the negative-log Kd (pKd) with HLA-A*02:16, with HLA-A*02:12 [10], in the assay with HLA-A*29:02, with HLA-B*15:01 [2] (setting [15]), with HLA-A*26:01 [3] (setting [15]) and with HLA-B*57:01 (setting [15]) was not above 4.70 each time. In addition, the negative-log Kd (pKd) was not above 4.70 with HLA-B*15:17; not above 4.70 with HLA-A*02:01 [5] (setting [15]); not above 4.70 with HLA-B*46:01 (setting [15]); 7.57 in the assay with HLA-A*31:01; not above 4.70 with HLA-A*69:01; not above 4.70 in the assay with HLA-B*27:03 (setting [15]). Further, the negative logarithm of the Kd (pKd) in the assay with HLA-B*18:01 (setting [15]), with HLA-B*39:01 (setting [15]) and with HLA-B*51:01 (setting [15]) was not above 4.70 each time.

TVIYRGTTF: the pKd with HLA-A*26:01 [11] is 6.08; in the assay with HLA-A*24:03 [8], not above 4.70; with HLA-A*02:19, not above 4.70; in the assay with HLA-A*02:11, not above 4.70; with HLA-A*03:01 [9] (setting [15]), not above 4.70; with HLA-A*68:02 it was not above 4.70. The pKd in the assay with HLA-A*02:03 is not above 4.70; with HLA-A*02:16 it was not above 4.70; with HLA-A*02:12 [10], not above 4.70; with HLA-A*29:02, not above 4.70; with HLA-B*15:01 [2] (setting [15]) it was 7.27; with HLA-B*57:01 (setting [15]), not above 4.70. The pKd with HLA-A*02:01 [5] (setting [15]), in the assay with HLA-B*46:01 (setting [15]), in the assay with HLA-A*69:01, in the assay with HLA-B*27:03 (setting [15]), with HLA-B*18:01 (setting [15]) and with HLA-B*39:01 (setting [15]) was not above 4.70 each time. Also, the pKd in the assay with HLA-B*51:01 (setting [15]) is not above 4.70. Moreover, the pIC50 with HLA-B*15:01 [12] is 5.33; with HLA-B*07:02, 4.84; with HLA-A*24:02, 5.90; with HLA-B*08:01, 4.34.

LYIEFTDNM had a pKd with HLA-A*24:03 [4] (source organism: Escherichia coli 536) not below 9.00.

FLLMLCLHH: the negative logarithm of the IC50 (pIC50) with HLA-A*02:01 [13] is 4.91; in the assay with HLA-A*03:01 [1], not above 3.89.
